Test results from the supplement of paper PMC9170038.

Test system: MS2 coat protein
Test: apparent KD of MS2 coat protein; designed switch direction (-1 OFF switch, 1 ON switch): -1; higher = weaker reporter binding
Procedure, shortened: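 Normalised cluster fluorescence was curve-fitted, and each design's median over clusters is its apparent KD. Before this, SNAP-549-labelled MS2 coat protein was titrated from 0.7 or 1.5 nM, doubling to 3 µM, over RNA switches transcribed on Illumina chips by stalled E. coli RNA polymerase. Titrations had no input, 200 uM small-molecule ligand, or an oligonucleotide input, and steps lasted 0.8–1.5 h (lowest) to 10–20 min (highest).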

[1] = input ligand: microRNA oligo, concentration not stated
[2] = Eterna round: R95, input ligand: microRNA oligo, concentration not stated
[3] = Eterna round: R95, input ligand: FMN 200 uM
[4] = Eterna round: R95, input ligand: none

| Sequence | apparent KD of MS2 coat protein (input ligand: FMN 200 uM) [nM] | apparent KD of MS2 coat protein [1] [nM] | apparent KD of MS2 coat protein (input ligand: none) [nM] | apparent KD of MS2 coat protein [2] [nM] | apparent KD of MS2 coat protein [3] [nM] | apparent KD of MS2 coat protein [4] [nM] |
| --- | --- | --- | --- | --- | --- | --- |
| UUAUUAAUUAAGACUGCAAGAUCACAUGAGGAUCACCCAUGUCAGGAUAUCAGCUCGAUUAGAGCUGAGAAGGGACAAGCAGUC [ExNG3/15-A1] (Eterna round: R96, puzzle: Exclusion NG 3) | 334 | 112 | 99.6 | – | – | – |
| UUAUUAAUUAAGACUGCAAGAUCACAUGAGGAUCACCCAUGUCAGGAUAUCAGCUCGUUUAGAGCUGAGAAGGGACAAGCAGUC [ExNG3/15-A2] (Eterna round: R96, puzzle: Exclusion NG 3) | 337 | 98 | 94.4 | – | – | – |
| UUAUUAAUUAAUAUUAUAAGAUCACAUGAGGAUCACCCAUGUCAGGAUAUCAGCUCGAUUAGAGCUGAGAAGGGACAAAUAAUA [ExNG3/15-B1] (Eterna round: R96, puzzle: Exclusion NG 3) | 1450 | 157 | 268 | – | – | – |
| UUAUUAAUUAAUAUUAUAAGAUCACAUGAGGAUCACCCAUGUCAGGAUAUCAGCUCGUGUAGAGCUGAGAAGGGACAAAUAAUA [ExNG3/15-B3] (Eterna round: R96, puzzle: Exclusion NG 3) | 576 | 451 | 306 | – | – | – |
| UUAUUAUAUGAAGGAUAUACUUAACAUGAGGAUCACCCAUGUGGUGUUGUGAGUGAGUGAGUUUAGUAGAAGGUCAAUUAUUUU [JMF's solution 28] (Eterna round: R96, puzzle: Exclusion NG 2) | 833 | 287 | 335 | – | – | – |
| UUAUUAUAUGUAGGAUAUGCAUAUUAUUAUUAUGCAGAAGGACAUGAGGAUCACCCAUGUAUAUUAUUAUUAUAUGUUAUAUAU [Title] (Eterna round: R96, puzzle: Exclusion NG 1) | – | 20.9 | – | – | – | – |
| UUAUUAUAUGUAGGAUAUGCAUAUUAUUAUUAUGCAGAAGGACAUGAGGAUCACCCAUGUAUAUUGUUAUUAUAUAUUAUAUAU [Title] (Eterna round: R96, puzzle: Exclusion NG 1) | – | 21.7 | – | – | – | – |
| UUAUUGGUAGUGAGGAUAUCGGAUAGAUAGAUAUUCGAGAAGGCACAUGAGGAUCACCCAUGUAAGAUUGGAAA [JR_BMEx4_Sub045] (Eterna round: R97, puzzle: Brourd's mod of Exclusion 4) | 155 | – | 38.5 | – | – | – |
| UUAUUGGUUGUGAGGAUAUCGGAUAGAUAGAUAUUCGAGAAGGCACAUGAGGAUCACCCAUGUGUGAUUGGAAA [JR_BMEx4_Sub047] (Eterna round: R97, puzzle: Brourd's mod of Exclusion 4) | 276 | – | 27.9 | – | – | – |
| UUAUUGUGAGGAUAUAUAUGCAGUAAUCCUUUAAAUUUAUAACUUGAGGAUCACCCAAGUAGAAGGCGCGAUAU [JR_Ex2_Sub055] (Eterna round: R97, puzzle: Exclusion 2) | 33 | – | 24.9 | – | – | – |
| UUCAGACAUGAGGAUCACCCAUGUGAGGAUAUGAUGCGAUCGUCGAAAGACGAUAGCAUCAGAAGGCACAAAUG [Fiskers Ex 1 - 18] (puzzle: Exclusion 1) | – | – | – | 114 | – | – |
| UUCAGGCGAGGAUAUCCAUGAAGUAACAUGAGGAUCACCCAUGUUCGCUGUUACUCCGAAGGAGAAGGUGCUCUGG [Eternabot (L2) Solution 25] (Eterna round: R97, puzzle: Exclusion 5) | 196 | – | 100 | – | – | – |
| UUCAUGUGAGGAUAUAGUACUCCUUCUAUUAUUUUUGAGUAUUAGAAGGCACAUGAGGAUCACCCAUGUAGUAC [Ex4 - 3 - 39] (puzzle: Exclusion 4) | – | – | – | 24.6 | – | – |
| UUCAUGUGAGGAUAUUAGUAGUAAAUGAAUAAAAUUAUUACUGAGAAGGUACAUGAGGAUCACCCAUGUUCCUU [Mat - Exclusion 4 - Eli Mod - D21] (Eterna round: R97, puzzle: Exclusion 4) | 20.1 | – | 14.6 | – | – | – |
| UUCCUCAUAACAUGAGGAUCACCCAUGUAUUAUUUGAUAACUGAGGAUAUACUAAUAAUGUUUAUGUAGAAGGCAGAUACAGAU [JR_ExcNG3_Sub015] (Eterna round: R96, puzzle: Exclusion NG 3) | 623 | 69.1 | 59.1 | – | – | – |
| UUCCUGUCAGGAUAUGACUAGAGGCACGAAAGUGUGUUUAGUUAGAAGGGACAUGAGGAUCACCCAUGUAGUCC [Bring Us a Shrubbery-20] (puzzle: Exclusion 4) | – | – | – | 21.9 | – | – |
| UUCGCAAAAUUAGGUCCUAACAUGAGGAUCACCCAUGUUCUAGGUAAGUGCCUCCGCCCGCUAACUGUUCGUCUUGU [Eternabot (L1) Solution 36] (Eterna round: R97, puzzle: Sensor, turn-off variant 1) | 23.1 | – | 24.9 | – | – | – |

| Sequence | apparent KD of MS2 coat protein (input ligand: FMN 200 uM) [nM] | apparent KD of MS2 coat protein [1] [nM] | apparent KD of MS2 coat protein (input ligand: none) [nM] | apparent KD of MS2 coat protein [2] [nM] | apparent KD of MS2 coat protein [3] [nM] | apparent KD of MS2 coat protein [4] [nM] |
| --- | --- | --- | --- | --- | --- | --- |
| UUCUGCACGCUGCGGUCCUACAUGAGGAUCACCCAUGUGGUCUGGUGGCGUGGGUCGCCGGACUUGGCUCGUCUUGA [salish99_S_TOV1_R5_044] (Eterna round: R97, puzzle: Sensor, turn-off variant 1) | 18.2 | – | 19.1 | – | – | – |
| UUCUGCACGCUGCGGUCCUACAUGAGGAUCACCCAUGUGGUCUGGUGGCGUGGGUCGCCGGACUUGGCUCGUCUUGG [salish99_S_TOV1_R5_049] (Eterna round: R97, puzzle: Sensor, turn-off variant 1) | 15.4 | – | 14.9 | – | – | – |
| UUGAAGAUAGGAUAUACGAGGAGAGGAGAGAGAAGGUGAGGACAUGAGGAUCACCCAUGUAGAAGGAUCAGGAG [JR_Exclu2_Sub066] (puzzle: Exclusion 2) | – | – | – | 86.9 | 66.1 | 84.9 |
| UUGAUGUCAUCAGGAUAUAGUAUUUAAGACAUAUCUUCUUUCAAACAUGAGGAUCACCCAUGUCGCUAGAAGGGAUGAAUGAUU [JR_ExcNG2_Sub085] (Eterna round: R96, puzzle: Exclusion NG 2) | – | 12.1 | – | – | – | – |
| UUGAUUCAUGUAGGAUAUGCGUGGCGAAGCUAUGCAGAAGGACAUGAGGAUCACCCAUGUGCUUGCGUCCGCGUACGGAUGCUA [JL ENG1 1.23] (Eterna round: R96, puzzle: Exclusion NG 1) | 154 | 107 | 165 | – | – | – |
| UUGCAGUCGUCAGGAUAUAGUAUUACGGCCAUUUAUAUUUUCAUACAUGAGGAUCACCCAUGUCGCUAGAAGGGAUUAUCGAUU [salish99_ExNG2_r04_101] (Eterna round: R96, puzzle: Exclusion NG 2) | 49.7 | 40.4 | 53.4 | – | – | – |
| UUGCAGUCGUCAGGAUAUAGUAUUACGGCCAUUUAUUUUUUCAUACAUGAGGAUCACCCAUGUCGCUAGAAGGGAUUAUCGAUU [salish99_ExNG2_r04_102] (Eterna round: R96, puzzle: Exclusion NG 2) | – | 38.9 | – | – | – | – |
| UUGCGCUGAGGAUAUAUAACCGAUGACAUGAGGAUCACCCAUGUGGAUACAAGGGACUGAAUAGAAGGUAGCCAGA [Eternabot (L1) Solution 69] (Eterna round: R97, puzzle: Exclusion 5) | 42.4 | – | 79.9 | – | – | – |
| UUGGUUAUCCAUGGAAGUAACAUGAGGAUCACCCAUGUAUGUCUAGUUUUUUGUUCGUCAUAGGCCUUUUGUUUGGA [JR_SV3TOV1_Sub022] (puzzle: Sensor v3, turn-off variant 1) | – | – | – | 27.9 | 26.8 | 30.9 |
| UUGGUUAUCUAUGGGAGUAACAUGAGGAUCACCCAUGUAUGUCUUGUUUUUUGUUCGUCAUAGGCCUUUUGUUUGGA [JR_SV3TOV1_Sub024] (puzzle: Sensor v3, turn-off variant 1) | – | – | – | 35 | 28.6 | 29.8 |
| UUGGUUGUGGUAGGAUAUCCGUUGGAAACCGUCGGAGAAGGACCACAGUCACUGGGUCUUUGUCUGGUGGACUGGAAUCACCAU [pwkr exNG1 F6.21] (Eterna round: R96, puzzle: Exclusion NG 1) | 295 | 157 | 224 | – | – | – |
| UUGGUUGUGGUAGGAUAUCCGUUGGAAACUGUUGGAGAAGGACCACAGUCACUGGGUCCUUCUUUGGUGGAGUGGAAGAACCAU [pwkr exNG1 F6.17] (Eterna round: R96, puzzle: Exclusion NG 1) | 131 | 192 | 167 | – | – | – |
| UUGUAGUCAGGAUAUACAUGAGGAUCACCCAUGUAAAAUUUUAAUUUAAUUUGAAGGUGUAGAAGGGACCAGUU [Ex3 #24] (Eterna round: R97, puzzle: Exclusion 3) | 36.5 | – | 43.4 | – | – | – |
| UUGUGCAAAGGAUAUACGUCCGACCUCGUGGAACUGAGAAUACAUGAGGAUCACCCAUGUAGAAGGUUGCCGAG [Racereus] (puzzle: Exclusion 2) | – | – | – | 10.5 | – | – |
| UUGUUAUAUGAAGGAUAUACUUAACAUGAGGAUCACCCAUGUGGUGUUGUGAGUGAGUGAGUUUAGUAGAAGGUCAAUUAUUUU [JMF's solution 29] (Eterna round: R96, puzzle: Exclusion NG 2) | 1340 | 380 | 492 | – | – | – |
| UUGUUCAGAGGAUAUACAUGAGGAUCACCCAUGUGUUUCAGCUAGGAGACUAGCGAAAGUAGAAGGCUGUACUC [salish99_ex3_r4_016] (Eterna round: R97, puzzle: Exclusion 3) | 30.5 | – | 25.6 | – | – | – |
| UUGUUCCAUGUAGGAUAUGCAUAUUCUUAUUAUGCAGAAGGACAUGAGGAUCACCCAUGUAUGUUAUUAUUAUAUGUUACAUGU [Design 1] (Eterna round: R96, puzzle: Exclusion NG 1) | – | 56.7 | – | – | – | – |
